Results: publication PMC2140169

Columns and labels:
[1] = biological target: GST-Nup358 fragment 2500-C (amino acid 2500 to the COOH terminus) (UniProt P49792); test: solid-phase binding assay in microtiter wells
[2] = biological target: GST-Nup358 fragment amino acids 2550-2837 (region between Ran-binding domains three and four, without FXFG repeats) (UniProt P49792); test: solid-phase binding assay in microtiter wells

percent of added protein bound [1]: 20% | fold reduction in binding against the domain containing FXFG repeats (2503-2893) [2]: 5 fold
Substance: SUMO-1-modified NΔ419 (RanGAP1 amino acids 420-589) (from UniProt P46061 420-589) (complex)
